Data as given in patent US20190367631A1 (Regeneron, published 2019).
Read-outs that look alike come from different tables or passages of the source.

Tests used:
[1] = target: T1, full length human MSR1 with a C-terminal Myc tag, on HEK293.Myc.hMSR1 cells (human, UniProt P21757 1-451); experiment: ECL cell binding, HEK293.Myc.hMSR1 cells, 11 nM
T1 construct: whole, on cells; stably expressed on engineered HEK293 cells; not shown: C-terminal Myc tag
T1 sequence (looked up): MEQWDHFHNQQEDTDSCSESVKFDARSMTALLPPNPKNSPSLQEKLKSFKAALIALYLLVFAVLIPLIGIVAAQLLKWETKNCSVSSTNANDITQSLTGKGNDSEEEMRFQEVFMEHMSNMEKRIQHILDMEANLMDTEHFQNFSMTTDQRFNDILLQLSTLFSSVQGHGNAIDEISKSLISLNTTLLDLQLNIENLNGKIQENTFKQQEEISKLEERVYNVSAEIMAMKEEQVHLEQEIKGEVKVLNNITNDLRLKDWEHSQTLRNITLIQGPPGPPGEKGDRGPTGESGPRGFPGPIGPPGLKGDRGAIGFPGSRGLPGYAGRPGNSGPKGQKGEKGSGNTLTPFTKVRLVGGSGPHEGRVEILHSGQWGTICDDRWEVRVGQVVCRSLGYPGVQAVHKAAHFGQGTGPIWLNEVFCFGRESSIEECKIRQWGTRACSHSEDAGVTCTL

[2] = target: T2, full length monkey MSR1 on HEK293.mfMSR1 cells (Macaca fascicularis, UniProt A0A2K5UWE2 1-451); experiment: ECL cell binding, HEK293.mfMSR1 cells, 11 nM
T2 construct: whole, on cells
T2 sequence: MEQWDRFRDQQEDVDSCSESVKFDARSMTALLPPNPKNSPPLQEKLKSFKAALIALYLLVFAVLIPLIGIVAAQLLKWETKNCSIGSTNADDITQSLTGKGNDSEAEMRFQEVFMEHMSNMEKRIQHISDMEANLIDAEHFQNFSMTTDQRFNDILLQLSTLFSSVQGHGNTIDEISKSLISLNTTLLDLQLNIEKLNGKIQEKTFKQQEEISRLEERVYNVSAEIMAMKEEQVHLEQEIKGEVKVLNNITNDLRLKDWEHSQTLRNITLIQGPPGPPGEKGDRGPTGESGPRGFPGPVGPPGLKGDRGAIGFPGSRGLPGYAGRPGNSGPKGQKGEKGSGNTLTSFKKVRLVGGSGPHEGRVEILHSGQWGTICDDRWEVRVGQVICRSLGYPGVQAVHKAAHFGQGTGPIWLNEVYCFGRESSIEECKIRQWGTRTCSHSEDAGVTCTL
Method: All cells were washed once with 1×PBS with Ca²⁺/Mg²⁺ and counted with a Cellometer™ Auto T4 cell counter (Nexcelom Bioscience). Approximately 1.0×10⁴ cells were seeded separately onto 96-well carbon electrode plates [MULTI-ARRAY high bind plate, Meso Scale Diagnostics] and incubated for 1 hour at 37° C. Non-specific binding sites were then blocked by 2% BSA (w/v) in PBS with Ca²⁺/Mg²⁺ for 1 hour at room temperature. THP-1 cells were pre-incubated for 0.5 hours at room temperature in sample dilution buffer with: 1) 1 mg/mL Fc receptor block reagents to block Fc gamma receptors on THP-1 cell surface [whole molecule human IgG (Jackson Immunoresearch, Cat #009-000-003) for wells being tested with anti-MSR1-mFc antibodies or 2) whole molecule mlgG (Jackson Immunoresearch, Cat #015-000-003) for wells being tested with anti-MSR1-hFc antibodies. Antibody binding on HEK293.Myc.hMSR1, HEK293.mfMSR1 and HEK293 cells was tested without Fc receptor block reagents. […] Plates were then washed to remove unbound antibodies an AquaMax2000 plate washer with a cell washing head (MDS Analytical Technologies). […] Plates were washed and developed with Read Buffer (Meso Scale Diagnostics, Cat # R92TD-2) according to manufacturer's recommended procedure and luminescent signals were recorded with a SECTOR Imager 600 (Meso Scale Diagnostics). Luminescence intensity, measured in relative light units (RLU), was recorded to indicate the binding intensity of each antibody at the range of concentrations.

[3] = target: T2, full length monkey MSR1 on …; experiment: ECL cell binding, HEK293.mfMSR1 cells; section head of Table 10
[4] = target: T3, human MSR1 extracellular domain expressed with a N-terminal nonahistidine tag (His9-hMSR1); R&D Systems, Cat … (human, UniProt P21757 77-451); experiment: SPR Biacore T200, 25 C, antibody captured by anti-human Fc, His9-hMSR1 injected; no dissociation seen, kd fixed at 1.00E-05
T3 construct: extracellular domain; Bought reagent; also called His-hMSR1; 9xHis-hMSR1
T3 sequence: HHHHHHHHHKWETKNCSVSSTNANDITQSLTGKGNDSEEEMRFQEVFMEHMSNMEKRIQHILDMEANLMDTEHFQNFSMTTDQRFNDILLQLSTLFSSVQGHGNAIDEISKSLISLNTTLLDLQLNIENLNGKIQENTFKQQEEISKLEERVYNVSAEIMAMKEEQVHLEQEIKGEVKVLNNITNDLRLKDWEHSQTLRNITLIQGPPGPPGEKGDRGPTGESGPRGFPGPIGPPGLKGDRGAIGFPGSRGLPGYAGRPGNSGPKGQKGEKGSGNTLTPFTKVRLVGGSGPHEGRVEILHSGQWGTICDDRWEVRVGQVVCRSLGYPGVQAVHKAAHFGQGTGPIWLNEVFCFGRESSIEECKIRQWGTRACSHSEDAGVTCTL
Method: (§1) All binding studies were performed in 10 mM HEPES, 300 mM NaCl, 3 mM EDTA, and 0.05% v/v Surfactant Tween-20, pH 7.4 (HBS-ET) running buffer at 25° C.
(§2) The association rate (kₐ) and dissociation rate (kd) were determined by fitting the real-time binding sensorgrams to a 1:1 binding model with mass transport limitation using Scrubber 2.0c curve-fitting software. Binding dissociation equilibrium constant (KD) and dissociative half-life (t½) were calculated from the kinetic rates as:

[5] = target: T3, human MSR1 extracellular domain …; experiment: as above; remark: listed apart in the source
Method: as §1, §2

[6] = target: T3, human MSR1 extracellular domain …; experiment: SPR Biacore T200, 25 C, antibody captured by anti-human Fc, His9-hMSR1 injected
Method: as §1, §2

[7] = target: T3, human MSR1 extracellular domain …; experiment: as above; remark: listed apart in the source
Method: as §1, §2

[8] = target: T4, human MSR1 extracellular domain expressed with a N-terminal nonahistidine tag (human, UniProt P21757 77-451); experiment: competition ELISA, plate-coated His9-hMSR1; 500 nM antibody, competitor ligand 5 nM Ox-LDL
T4 construct: extracellular domain; also called His9-hMSR1; His-hMSR1
T4 sequence: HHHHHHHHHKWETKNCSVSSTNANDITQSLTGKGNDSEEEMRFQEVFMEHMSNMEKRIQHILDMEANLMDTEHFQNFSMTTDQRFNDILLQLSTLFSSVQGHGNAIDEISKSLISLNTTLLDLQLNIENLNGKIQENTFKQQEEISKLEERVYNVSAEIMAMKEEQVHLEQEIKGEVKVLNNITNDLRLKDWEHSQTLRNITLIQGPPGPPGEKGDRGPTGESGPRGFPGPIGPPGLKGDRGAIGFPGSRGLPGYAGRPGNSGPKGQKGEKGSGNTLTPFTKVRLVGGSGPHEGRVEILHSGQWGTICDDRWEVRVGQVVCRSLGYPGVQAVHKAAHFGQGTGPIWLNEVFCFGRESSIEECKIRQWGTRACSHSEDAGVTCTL
Method: (§3) Buffer alone was also added to wells on each coat. […] This assay was conducted in four different assay runs.
(§4) Data analysis was performed using a sigmoidal dose-response model within Prism™ software (GraphPad).

[9] = target: T4, human MSR1 extracellular domain …; experiment: competition ELISA, plate-coated His9-hMSR1; 300 nM antibody, competitor ligand biot-AGE-BSA
Method: as §3, §4

[10] = target: T4, human MSR1 extracellular domain …; experiment: competition ELISA, plate-coated His9-hMSR1; 100 nM antibody, competitor ligand Ac-LDL
Method: as §3, §4

Binder	Kd [4] [pM]	koff [4] [s⁻¹]	t½ [4] [h]	kon [7] [M⁻¹ s⁻¹]	other results
H1xH29282P2 (antibody, V domains shown) VH: EVQLVESGGGLVQPGGSLRLSCAASGFTFSTYAMSWVRQAPGKGLEWVSTISGRSDITYFADSVKGRFTVSRDNSKTTLYLQMNSLRAEDTAVYYCATDDDLPLDYWGQGTLVTVSS VL: not shown	–	–	–	–	ratio of binding signal (RLU) to isotype control [1]: 9 fold; ratio of binding signal (RLU) to isotype control [2]: 1 fold; binding result [3]: no binding (tested: 11 nM)
H1H21234N-N297Q (antibody, human IgG1, V domains shown, human IgG1 Fc with N297Q (EU); also called H1H21234-N297Q) VH: QVQLQESGPGLVKPSETLSLTCTVTGGSISRNYWSWIRQPPGKGLEWIGYIYYSGSIDYNPSLKSRVTISVDTSKNQFSLKLSSMTAADTAVYYCARDRWNWKYGMDVWGQGTTVIVSS VL: EIVLTQSPGTLSLSPGERATLSCRASQTVRNNYLAWYHQKPGQAPRLLIYGASSRATGIPDRFSGSGSGTDFTLTISRLEPEDFTVYYCHQYGNSPWTFGQGTKMEIKR	≤ 33.3	≤ 1e-05	≥ 19.3	300000	Kd [5]: ≤ 45.4 pM; koff [5]: ≤ 1e-05 s⁻¹; t½ [5]: ≥ 19.3 h; kon [6]: 220000 M⁻¹ s⁻¹
H1H21234N-N297Q-LP13 (antibody, human IgG1, V domains shown, steroid linker-payload LP13 clicked to azido-PEG3-amine on Q295 and Q297 (EU) of the heavy chain constant region, antibody-drug conjugate; human IgG1 Fc with N297Q (EU); also called H1H21234N-LP13) VH: QVQLQESGPGLVKPSETLSLTCTVTGGSISRNYWSWIRQPPGKGLEWIGYIYYSGSIDYNPSLKSRVTISVDTSKNQFSLKLSSMTAADTAVYYCARDRWNWKYGMDVWGQGTTVIVSS VL: EIVLTQSPGTLSLSPGERATLSCRASQTVRNNYLAWYHQKPGQAPRLLIYGASSRATGIPDRFSGSGSGTDFTLTISRLEPEDFTVYYCHQYGNSPWTFGQGTKMEIKR	≤ 25	≤ 1e-05	≥ 19.3	400000	–
H1H21234N-N297Q-LP3 (antibody, human IgG1, V domains shown, steroid linker-payload LP3 clicked to azido-PEG3-amine on Q295 and Q297 (EU) of the heavy chain constant region, antibody-drug conjugate; human IgG1 Fc with N297Q (EU); also called H1H21234N-LP3) VH: QVQLQESGPGLVKPSETLSLTCTVTGGSISRNYWSWIRQPPGKGLEWIGYIYYSGSIDYNPSLKSRVTISVDTSKNQFSLKLSSMTAADTAVYYCARDRWNWKYGMDVWGQGTTVIVSS VL: EIVLTQSPGTLSLSPGERATLSCRASQTVRNNYLAWYHQKPGQAPRLLIYGASSRATGIPDRFSGSGSGTDFTLTISRLEPEDFTVYYCHQYGNSPWTFGQGTKMEIKR	≤ 24	≤ 1e-05	≥ 19.3	417000	–
H2aM21235N (antibody, mouse IgG2a, V domains shown, Human variable domains with mouse IgG2a Fc) VH: EVQLVESGGGLVQPGGSLRLSCAASGFTFSDHYMDWVRQAPGKGLEWVGRTRNKANSYTTEYAASVSGRFTISRDDSKNSLYLQMNSLKTEDTAVYYCTRAGIIGTLFDYWGQGTLVTVSS VL: DIQMTQSPSSLSASVGDRVTITCRASQIIGRYLNWFQQKPGKVPKLLIYAASSLQRGVPSRFSGSGSGTDFTLTISSLQPEDFATYYCQQSYNTPPITFGQGTRLEIKR	–	–	–	–	% Blocking [8]: -4%; % Blocking [9]: -24%; % Blocking [10]: 24%
